This data set can be described thus: protease stability score; higher = more stable; yeast display proteolysis, trypsin and chymotrypsin.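 Also: log10 excess protease needed over predicted unfolded state with 0 meaning unfolded.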
As to “DETASRAAERYMKALQTGDPDEVVKQIDPNVHVRVGDKEVQGKEQFRKKQERDKKQARYHIKHVTFNVEGDKVRVDVIFRKHHNGQPRHDRMEQRMSVRGDKITHQENHKTG”, the protease stability score is 0.02.

“DEEELMNRFWETMERIMEKGDEDTMRKQVDPNAKAEYGDKTVHGRHQFAKFWIEQARRADHIKFDIKSIDVKPPTIVVRLTVKFNVNGTNHKRDISIVFKVHNGRIVLHNAHEN” gave a protease stability score of 1.02.

“DEDVKRMIEDFIEAEKKNNPRQLKKNADPEAEADVGDTKVHGMDHFAREVKKRMDQMRVSVDYKSITVDGNTIKAKARVSENHNGRPKHNTATLEFRAHNGRIKEIRHHEDK” had a protease stability score of -0.332.

With “DEEQVQKVVDKLIKAVQNGNRKQIVDLVKENVEFTLADETYKGKDDVQTVIKRLHEVGAEVHVDRYDVRGDTAHADTRWHMDDQEMHVTVEYVVRGDRVEQVHVQWSEEAKKVHKKG”, the protease stability score is -0.044.

Sequence “DREAKKRADQYMEVIQNGDPEKFKHQADENVRVEVGNHEYHGRESMAKELKKRRDEIRIDIRRYSIDNQGEKVRIEVDAVAQINGRPRTYSYVFEMTFQNGRIKKFTLQISEDDEQNLKS” came in with a protease stability score of 0.014.

“DEELKKQMDEALKARQNNDEQRLRDLFDPNVHIQVGDKVITGREEYAKRVVTTLRQLRFKYTVKSVKTKPNHIEIDVEVHNNRNGNPSNRKIVINMEADNGKISHLSVEHDG” displayed a protease stability score of 0.585.

The sequence “DEKRARKLLEKAFELVQKGNKDTMRKIGKPNVKYKYVDQEYEGPEAMKFVIDVVKKIGAEVKKQEVEVKGDTAKATFQYRQGDKTVETRVEVKYEGDKLKEVRVEATDEVKKLVHQG” came in with a protease stability score of 0.009.

For “DEEHMEHFREVMEQNDPDELNELVDPNARLVIGDKKYHGRDTVVKLIKRFWSKADHNRLRSLTIRNGRASWRMQATVNGQRLDFTVEAVFHNGRLKTMRFKFRDRSQVDHFRRLLQ”, the protease stability score came to 1.74.

Regarding “DKKDVDRVIKLLEQGDWESLVEMMDENARLQVGNKNYHGRTQVRHAATRLQDRIDHVKIDQVDVHNGRVDARFKANINGKTMDVQVRINVDNGHIKYVRVTVRSEELRHELDRLLS”, the protease stability score amounted to 0.961.

“EEQVRELLRKALEAKQEGDEKKLTKLFDPNAKVDVGDKTFHGMEDIARTIVTELKQIRVRLEIKHYSMRGDHLRVDAEVEEEHNGEPQTRRVIIYMHVQGDKITKQKIEDRQ” yielded a protease stability score of 1.08.

The sequence “DEELVKRLKKLLEALESGDEEKVHHMFDPNVRFQVGDKRFHGRERYASTVKREKDEMRNEVTSYRLTATGDKAEMSFRNILDENGSPHDDIQVMHVHVQGDKIKRASIQETR” had a protease stability score of 0.071.

“DKEEVEKIAREALEAAVKGDEDKLKTYLGPDVKYVLGDQEYQGQQVAELVMKLIKKDGARLQLETLKVEGNTVQAQYQFHVDGVTRKAHITMKVKGGRVDEWQVHIDDHAKEALKKG” came in with a protease stability score of 1.28.

With “DEKIVQAMKRYMDARQKGDPEDFNNLVDPNVRLNVGDKRVHGRERISEQIQREQRKMRIEIKHVEFRDQGEKVQLRVKYVVEINGRPRHASQRMEASLDDGKIKSIEIRVDEEVKKIEKV”, the protease stability score was -0.088.

In the case of “DEETKARHQIKHMNKLAQTGQLHEVAKQADPNAEFRIGDKTLRGRDNFVRQVKETADTVDHFDVQVRRVHVKGDKAKANIDLRFDVNGKQERRTLRFSAVMDNGEVVVRFMQIN”, the protease stability score is -0.03.

Consider “DQEKNNHDAKKWVKNLRTGNEDELQRLFDEDARFNYGDKTVTGREQLQEWAHRMQRRIDSVDVRSVSQHGDKMNIDVVVRVDGRDRRFIFRAEIHNGRIKNAWMEDT”, for which the protease stability score turned out to be 0.497.

The sequence “DEEELEKMAEKVIKMLRSGDPRQAVRMMDENAHVEYGDKTYHGREDAERAVKQWTDHFDKVRVVHVDVHNGTVNVDMEINHNGRVERYVVRVEVHNGRVKHLVVKSS” returned a protease stability score of 1.2.

The sequence “DQEEVRRVVEKVAKAVQNGDATRLRDMGKDGVKYRRVEEETHGPEAVEKVLKYLRKQGVKLQVKHVEVEGNTAQTEVDYRRGDETLTVHAKAKVQGGRIDEVQVDLDEKAKKYVDHG” yielded a protease stability score of 0.138.

For the sequence “DEDAVKVAEKFVEVEETGSEDDFKRLADKDAKIRVGENHVHGRESLLDELRKRRKQINIVIHHVRAEDRGDKVDVEIEAVDERNGKPNQYNVKFKVKMHNGRVKQIDRDRDR”, the protease stability score turned out to be 0.168.

“DEKQVLELIRDVMKHVQNGNQEEVKKHGKPSVEVILFNERYTGPEALVRLAEFAQKLGAQFEYKETRHEGNKVKTKVEVTFGGTTVRYEVEVEAEGGKVVKWEVRASDEFDERVKKS”: the protease stability score stood at 1.09.

In the case of “EEELFEQWQKIIENQEHGNEDRLQDQFDPNARIDVGDKRIRGRENLAKDQQDKLDNIRFDFQIDHVQDRPGKIVIKYHEVNNHNGKPRSDTVVVHIQAHNGKIQRIDVQKDK”, the protease stability score was -0.065.

As for “DEQATEVIERFLTALQRNDPHELKKQLDEDVRMNVGDKTLHGRDSFEKTWHEKLRTQRIELKDYRIEVQPGRVKAHVHYVVEHNGRPRTKRHTFSAEVHNGHVKHFHQQDEQ”, the protease stability score is -0.462.

Consider “DEDKNKEAVERFLHNLENGDWQSLADLADKNAKVQIGDETVSGRESAQNELRKFAERVDHVDYHDMTVQGDKFEVVFQEDHNGRKRKVVAEFRVKNGRFKHVVFDDG”, for which the protease stability score is -0.008.

In the case of “DDEERAHEIFKKYQHVLKSNDEDKDRELMDPNARLHIGDKQYHGREQVTKYWHEVLTHADHLEANLKDFRVKGESINIVYTFRQNEDGRDSQVIIEMVMKRQGDHYTVTDNTQK”, the protease stability score is -0.044.

“DREERHRAEQWLNAIKTNNPDDVVEQADKDVRLEVGEERVSGRSELRKEVDKDRKRWDFEIDHVDIKVHNGRIHMTVDVVVRHNGKPDKQEQEYTIEFSNGRARTIVARQNK” showed a protease stability score of -0.229.

“DREEKVREALETLQKAFRTGDPRLFVEQLDPNVRIEVGDKTVHGREQASEWAKRMRDKFDHFEVKIHDMSVQGDKFSVKVSLRQDVNGTDVQRDNHYTIVFHNGRVHVQNINNK” registered a protease stability score of 0.644.

For “DQDAARIYKHQVEAIKTGNPSKVMELADPNVEFHVGDRVITGREQLRNDVDRHKKQMRVEIRIEDITDQGEFANIRANVTIDVNGRPKTSRVNMRVFAHNGKVKSQDFQTSQ”, the protease stability score came to 0.52.

“DEENEKFARRYLEALKHNNPHEMQNMIDPNATLNVGDTRIDGDDQAKKFWSKKLQEISISIRKVSVEVSGNRIDIDAEYELEHNGKPDVNRRTVHLNVKNGKITDLKVRHDK” yielded a protease stability score of -0.063.

“DDSKERSNLEKFAKALETGDPKKLQQQLDPDARMQIGDKTYHGRHDMEKWLEEFNRQADHYQIDTFDQHNGTLNIQMRMNINGNTVSMTVNVVAKNGRVKHVTFDPDVWRQLES” yielded a protease stability score of 0.809.

As for “DDEHFDHLRKVLKTGDFERLNQLMDPNASADIGDKRYHGRESLEEMFRKLHTQIDHIEFKSMDLQGNKLKYTLVMTFNGREVTVTVVVEVQNGHIKRISIQARNESDREKLKHALD”, the protease stability score amounted to 1.46.

As to “DSERAKQWTHFLRLMETGNEEDLSKMADPNARFQVGDETYKGKDDVTKWARTVKTHMRVTYKRLNNDDEEGHARIEADYQYDHNGKPEEDKNSLVLSFHNGQIKEVVIHHVS”, the protease stability score came out at 0.164.

Sequence “DRQASEVARKILQAIRKGDPETMKELVDPNVNVTVGEKTFKGREEAARHFVERQKQIRVQVDSMEVSAHNGKVDARMKVLYNHNGRPVKMDVVVHFDMKNGKARRAEYRVDEEQRRRLET” showed a protease stability score of 0.082.

On to “DSHLQEEVERFWKQLEHGNRQNLRELADEEVNFVYGDKTIHGREKAATHMSKRVRKIQIEWKTYSAEVHNGKLDATAEWRADHNGKPKDVKMTFYVKVHNGRIKEVNIQEEK”, for which the protease stability score was 0.178.

In turn, “DDEEMTQLLRRILKALEKNDEDLYNQNFDEDVKINVGDKRYNGREDASKLMKTWNKQIDHFQVNDYTVSGEQLEMNITFQVDGRNVSFNVTATAKNGRVKEQTFDPSAMRKARS” displayed a protease stability score of -0.077.

In the case of “DHEELEVVKEWFDAIQKGDPKTIQELADKDAEFQIGDKTVRGREHLVETVERRKKHMEFQIRIDRMDVHGDKAVIDVTMSNKHNGQPSQDRYNVRVELHNGKIQNVDQSKRS”, the protease stability score was -0.033.

As to “DEKDKARRMAETIDKLAERNDFEELAKNADPDAKVTVGDKTFHGEENLVKHLQEERKRIDQVRIEVKDVKVQGDEIRINAKYEATHNGRRVDQQVRVIVEVHNGRLVISEMQYE”, the protease stability score came to 0.979.

The sequence “DDEVAEELRDIVHNGNWEEMSRNADKNAKVTIGDKQVHGRESAVRVLRIWQKQFDHIQIDRIDKHPGRVRWNARANVNGREVDYHARIHVKNGKVTDVTMEFTDPSQKRQFNRDLN” returned a protease stability score of 0.205.

For the sequence “DEDKEKKINKDIADAWQNGDEQQMQKQIPPEVRIQVGDKTVHGREHIHKWMRRWRERVDHLQLKDMTAHNGNMRIKFVIRHNGRQDVRQVHIQVDNGTVHTASFDTE”, the protease stability score came out at 0.43.

Sequence “DEQEHAKRVVRRLIDAFKDGDPKTYAQQLDPNVRIQIGDKEITGREKVREEFRTVRQRVDHVNLHVKRVDVNGDKIVVQIRVVRKHNGRTEQRTLVVEVRDHNGREVVKHVSFK” displayed a protease stability score of 0.884.

Take “DEEAHKLATKWLRAVQTGDPDTVKELVDPNVRAVYGDQEITGRERLADEIKKTRDHSRVELESVRVTVHGDKVRAQADVRVNTNGKPERNTVDVTIVIHNGRIKRMHMQKSQ”: the protease stability score came to 0.7.

The sequence “DEDKQAKEMMKRFVHMMQEGDPSEAKRLFDKNARLVVGDKRFHGQHEASKFAEEIKKRYDKVHVELKDLKVHGDKVDAKAKVVLNDNGQKDTHEVVITALFHNGRIKVQEVRVQ” showed a protease stability score of 0.983.

With “DDEVKERVTQLLTAMLTNNPDKVQELIDPNAKVHVGDKRVQGEDDIKRVVEEENRQWRMRIKSVSVHVQGEKVRLDIEFVVHVNGEPQNDRVIMELTVHNGRVTDLQLQVDPRKLQERRN”, the protease stability score stood at 0.966.

Regarding “DEKKAEELARTVFEMADKGDKDTLRKIGMPNGEYKYVDKRYEGEQLALILVEQIKKVGAQVKVKRMEVRGDKVQADFDYEYGDKTVRTTARLEYKGDKLLRAEVEVSEEVKKIMTQG”, the protease stability score was -0.073.

Regarding “DEEQVKKVVEELLKAVHNGNVDQIKKIVKENVEFTLGDKTMKGQEDVEKDVKQLHDKGADFKVDEVEVTGDHATANTKWQIGDQKAHVQVHYQVRDDTVERVEVRWSEDAKKAIKQG”, the protease stability score was -0.141.

In the case of “DEDAVRRVKDMIRNLKSGNPDDAARYADPNARFDIGDWHIDGRKQLVKKLRDITRHMRYKFEMRSVDVTGNKLKFKATAHVSVNGRPITYHMTASIIVHNGHVTHVDQQLPEELLKRIEQ”, the protease stability score turned out to be 0.785.

As to “DQEHVKRRADTAMKAIQNGDPDEAVKQMDPDAKMRVGDHEITGREDVRRYVETLHRRVDHNHILSLTHHGETVVFNAVVKVNGRNVTVNWVLKFHNGRLKQVDINPDEEKRFQS”, the protease stability score was 0.079.

“DEDQRRKLEDLLRAYRTGDEKRIVEMADPNVEMHVGDHEVHGMEKIARKQVRTNQEARVDYEDWRLDFQGDKVNFEFDLRRDHNGEPETHKVDMTIVFKNGRIKSQSVRNTK” came in with a protease stability score of -0.135.

In the case of “DRDQEDSFAKKVADVIQTGNPDDMRKLADEDARVDVGDKQYTGREHVDEAVENERKRIDHQQINSFSVNNGQIHATVSYVHNGQTHRFVVNVEIHNGHIKRARWQSK”, the protease stability score was found to be 0.273.

The values above are taken from the NTF2 design screens of Basanta et al. (2020).
